Our source for the # of clones values is US20070116705A1.

The target of this assay is N-terminus of murine PDE8, containing the PAS/PAC domain, fused to the LexA DNA binding domain (PDE8/LexA) (murine). The experiment in a line: yeast two-hybrid screen, number of high-stringency positive cDNA clones.
Sequence of N-terminus of murine PDE8, containing the PAS/PAC domain, fused to the LexA DNA binding domain (PDE8/LexA) (murine) (P0A7C2 other isoform, or with tags, fused parts or gaps limits assumed): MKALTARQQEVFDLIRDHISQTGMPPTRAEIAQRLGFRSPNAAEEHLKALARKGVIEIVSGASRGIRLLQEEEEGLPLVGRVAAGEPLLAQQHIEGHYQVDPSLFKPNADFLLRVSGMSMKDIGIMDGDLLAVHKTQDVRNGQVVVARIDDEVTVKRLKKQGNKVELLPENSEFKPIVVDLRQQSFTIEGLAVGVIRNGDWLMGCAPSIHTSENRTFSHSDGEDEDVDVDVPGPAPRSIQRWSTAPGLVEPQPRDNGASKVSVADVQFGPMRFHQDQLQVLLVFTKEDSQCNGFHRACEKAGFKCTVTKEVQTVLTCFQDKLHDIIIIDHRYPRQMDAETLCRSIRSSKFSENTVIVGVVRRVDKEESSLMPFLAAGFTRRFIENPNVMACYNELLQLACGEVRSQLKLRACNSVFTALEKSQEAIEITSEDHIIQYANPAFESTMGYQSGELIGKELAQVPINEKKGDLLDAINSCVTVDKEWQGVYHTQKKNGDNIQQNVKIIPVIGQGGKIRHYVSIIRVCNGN

KIAA0898 (from UniProt O94972 1-964) yielded a # of clones of 8 clones. LC8/PIN (Novel): the # of clones amounted to 15 clones.

“LC8/PIN (dynein 8 kDa light chain) (from UniProt P63167 1-89)” displayed a # of clones of 30 clones.
